Assays:
Assay type in all cases: cell-based, human
SAHep cells = assay: FAM-Aβ1-42 internalization by SAHep cells, flow cytometry; conditions: FAM-Aβ1-42, 4.5–7.5 μg/mL of h rTTR, 3 hours, 37 °C, N = 3
Protocol: For the study with hepatocytes, SAHep cells were grown in 6-well plates coated with collagen type I and after 24 hours cells were incubated with FAM-Aβ1-42 in the presence or absence of h rTTR (136 nM) for 3 hours at 37 °C. For primary hepatocytes, after 48 hours of seeding, cells were incubated with FAM-Aβ1-42 (100 nM), with the advantage of no need for TTR addition. For hepatocytes derived from TTR−/− mice, we also examined the effect of h rTTR on FAM-Aβ1-42 internalization. FAM-Aβ1-42 inside SAHep cells and primary hepatocytes was measured by flow cytometry (FACS Canto II, BD Biosciences).

hCMEC/D3 cells [1] = assay: FAM-Aβ1-42 efflux from hCMEC/D3 cells, flow cytometry; conditions: hCMEC/D3, 10 min loading with FAM-Aβ1-42, then 20 min in FAM-Aβ1-42-free media, 37 °C, mean of N = 3
Protocol: For efflux studies, hCMEC/D3 cells were initially incubated with FAM-Aβ1-42 for 10 minutes and then the media was removed and replaced with FAM-Aβ1-42 -free media, and further incubated for 10 and 20 minutes, at 37 °C. Finally, cells were analyzed by flow cytometry, as described above.

hCMEC/D3 cells [2] = assay: FAM-Aβ1-42 uptake by hCMEC/D3 cells, flow cytometry; conditions: hCMEC/D3, FAM-Aβ1-42 500 ng/mL (100 nM), 37 °C
Protocol: For quantification of Aβ1-42 uptake, hCMEC/D3 cells were plated into a 6-well plate coated with collagen type I and grown to confluence. Cells were washed with PBS and incubated for 5, 10, 15 and 30 minutes at 37 °C, with 500 ng/mL of FAM-Aβ1-42 (100 nM) in presence or absence of h rTTR (7.5 μg/mL, 136 nM). After incubation, cells were washed twice with PBS and enzymatically detached using trypsin (Gibco™), and then resuspended cells were centrifuged at 1000 rpm at RT for 5 minutes. The pellet was washed with PBS and cells recentrifuged as described above. Then the pellet was resuspended with PBS, and if necessary fixed with 4% Paraformaldehyde (PFA). Finally, cells were analyzed in FACS Canto II equipment (BD Biosciences) using Blue laser excitation of 488 nm. The flow cytometry data were analyzed using the Flowjo workstation.

FAM-Aβ1-42: Aβ1-42 labeled with 5-(and-6)-Carboxyfluorescenin (FAM), purchased from AnaSpec
Uptake of Aβ1-42 peptide by SAHep cells, maximum (SAHep cells): 70% | FAM-Aβ1-42 efflux, fluorescent cells remaining (hCMEC/D3 cells [1]; absence of TTR): 67.6% | FAM-Aβ1-42 efflux, fluorescent cells remaining (hCMEC/D3 cells [1]; presence of h rTTR): 45.5% | FAM-Aβ1-42 uptake, fluorescent cells (hCMEC/D3 cells [2]; 5 min, absence and presence of h rTTR 7.5 μg/mL (136 nM), N = 3): 35–39% | FAM-Aβ1-42 uptake, fluorescent cells (hCMEC/D3 cells [2]; 10 min, absence and presence of h rTTR 7.5 μg/mL, difference not significant, N = 3): over 57% | FAM-Aβ1-42 uptake, fluorescent cells (hCMEC/D3 cells [2]; 15 min, absence of TTR, mean of N = 3): 61.7% | FAM-Aβ1-42 uptake, fluorescent cells (hCMEC/D3 cells [2]; 15 min, presence of h rTTR 7.5 μg/mL (136 nM), mean of N = 3): about 73% | FAM-Aβ1-42 internalization with versus without TTR (hCMEC/D3 cells [2]; 30 min, h rTTR 7.5 μg/mL versus none, N = 3): significantly higher in the presence of TTR

— publication PMC4738280, “Transthyretin participates in beta-amyloid transport from the brain to the liver- involvement of the low-density lipoprotein receptor-related protein 1?” (Scientific Reports, 2016)
